From PMC5829826
Positions count from the first letter of the chain named.

Tests used:
Test in all cases: EMSA
Conditions in all cases: 60 mM HEPES-KOH pH 7.5, 25 mM MgCl2, 5 mM EDTA, 300 mM KCl, 50 µg/ml BSA, 3 mM DTT, 24 ng labeled DNA, 20 min, room temperature
[1] = target: T1, Cra WT (Escherichia coli EHEC TUV93-0) (UniProt P0ACP1)
T1 sequence: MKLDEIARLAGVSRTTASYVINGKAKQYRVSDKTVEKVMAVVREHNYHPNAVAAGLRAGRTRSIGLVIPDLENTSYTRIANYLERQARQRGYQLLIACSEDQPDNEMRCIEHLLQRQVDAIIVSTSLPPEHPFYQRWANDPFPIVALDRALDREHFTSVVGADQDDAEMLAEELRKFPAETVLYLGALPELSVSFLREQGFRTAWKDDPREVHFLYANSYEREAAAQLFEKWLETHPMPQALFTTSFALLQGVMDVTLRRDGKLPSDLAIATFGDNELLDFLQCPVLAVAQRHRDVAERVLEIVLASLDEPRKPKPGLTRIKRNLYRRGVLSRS

[2] = target: T2, Cra Y47F Y47F (Escherichia coli EHEC TUV93-0) (UniProt P0ACP1)
T2 sequence: T1 sequence with Y47F

[3] = target: T3, Cra Y47E Y47E (Escherichia coli EHEC TUV93-0) (UniProt P0ACP1)
T3 sequence: T1 sequence with Y47E

[4] = tested on: LacI Y47F Y47F, ORF:a00089fe
[5] = tested on: LacI Y47E Y47E, ORF:a00089fe
LacI WT, ORF:a00089fe = tested on: LacI WT, ORF:a00089fe
[6] = target: T4, PurR Y45F Y45F (Escherichia coli (TUV93-0?)) (UniProt P0ACP7)
T4 sequence: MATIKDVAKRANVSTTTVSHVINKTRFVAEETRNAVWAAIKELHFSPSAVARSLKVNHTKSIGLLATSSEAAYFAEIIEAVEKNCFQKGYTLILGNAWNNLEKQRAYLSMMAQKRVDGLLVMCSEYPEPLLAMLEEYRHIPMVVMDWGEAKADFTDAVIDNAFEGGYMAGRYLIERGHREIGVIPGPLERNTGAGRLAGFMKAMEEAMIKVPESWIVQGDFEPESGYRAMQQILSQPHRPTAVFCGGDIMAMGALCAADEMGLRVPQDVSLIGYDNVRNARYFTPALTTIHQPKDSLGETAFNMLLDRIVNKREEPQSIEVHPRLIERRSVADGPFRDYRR

[7] = target: T5, PurR Y45E Y45E (Escherichia coli (TUV93-0?)) (UniProt P0ACP7)
T5 sequence: T4 sequence with F45E

[8] = target: T6, PurR WT (Escherichia coli (TUV93-0?)) (UniProt P0ACP7)
T6 sequence: T4 sequence with F45Y

[9] = tested on: Cra Y47F (Escherichia coli EHEC TUV93-0)
[10] = tested on: Cra WT (Escherichia coli EHEC TUV93-0)

CACCTCCTAACTACTTAAAATTGCTATCATTCGTTATTGTTATCTAGTTGTGCAAAACATGCTAATGTAGCCACCAAATCATACTACAATTTATTAACTGTTATCTATAATGGCGAAAAGCGATGCTGAAAGGTGTCAGCTTTGCAAAAATTTGATTTGGATCACGTAATCAGTACCCAGAAGTGAGTAATCTTGCTTACGCCACTTGGAAGTGACGCATTAGAGATAATAACTCTAATGTTTAAACTCTTTTAGTAAATCACAGTGAGTGTGTGCGC (double strand) [adhE regulatory fragment]
binding [1]: binds | binding [2]: binds | binding [3]: no binding

CATGTGCTGCGACTGCGTTCGCTTACCCCAATCACTTACTTATGTAAGCTCCTGGGGATTCACTCGCTTGCCGCCTTCCTGTAACTCGAATTAAGTAGAGTATAGTGAAACGGTTCAGCTTGGTTTTTATTCTGTTTTATTTGTTTATGCAATGAGATCTATCTTATAAAGAGAAACGCTTAACTAAATGGAAATGC (double strand) [LEE1 (ler) regulatory fragment]
Kd [1]: 111 nM | binding [1]: binds | Kd [2]: 130 nM | binding [2]: binds | binding [3]: no binding

CGACGGCCAGTGAATCTGTAATCATAGTCATAGCTGTATCCTGTGTGAAATTGTTATCCGCTCACAATTTCACACAACATACGAGCCGGACGCATAGAGTGTAAAGCGTGGGGTGCCTAATGAGTGAGCTGACTCACATTAATTGCGTTGCGCTCACTGCCCGCTTTCCAGTCGGGAAACTTGTCGTGCCAGCTGCATTAATGAATCG (double strand) [lacO1O3 fragment]
binding [4]: binds | binding [5]: no binding | binding (LacI WT, ORF:a00089fe): binds

CGTAATCAATCCAGACCATATGTGTCCCACGATTTTACGCCCTGTCATCCTGTTCGGGGGCGCATTCTAACAGAAAAAGAAAACGTTTGCGTAGGGATTTCCTTCCCGCGCATCAATAAAAATGGCGCTGAAAAAATATTCAACGCCATCGACTTTTTATGCCTTTGCGGCATCGGACAATGCGTGTCGGATGCGGCGTAAACGTCTTATCCGACCTACGGTTCTACC (double strand) [purF-cvpA regulatory fragment]
binding [6]: binds | binding [7]: no binding | binding [8]: binds

LEE1 (ler) regulatory fragment
Kd [9]: 130 nM | binding signal (% reduction of binding vs no metabolite) [9]: 33 | Kd [10]: 111 nM | binding signal (% reduction of binding vs no metabolite) [10]: 33

TTTACGGCTTTCCTTGCGTGCTGAAACAGAAGTATTATGCTTTCTTGAAACGTTTCAGCGCGATCTTGTCTTTAACCCTAAGCCAGGTTGGCGCTTTTTTTCTCATAGAAGCTGAATCGTTTCAATTCAGCAAGAGAGGAGAACTATGTTCCAGTTATCCGTACAGGACATCCATCCGGGCGAAAAGGCCGGAGACAAAGAAGAGGCGATTCGCCAGGTCGCTGCGGCGCTGGTGCAGGCCGGTAATGTAGCAGAAGGCTACGTCAATGGCATGCTG (double strand) [fruB regulatory fragment]
binding [1]: binds | binding [2]: binds | binding [3]: no binding
